The text below walks through data of US20090068195A1.

Test [1] concerns the target native human IL-13 (human) (UniProt P35225). Briefly: cell-based or functional assay.
Test [2] deals with non-human primate (cynomolgus monkey) IL-13 (cynomolgus monkey). As to the kind of experiment: cell-based or functional assay.
non-human primate (cynomolgus monkey) IL-13 (cynomolgus monkey), sequence (Q5I6E4 other isoform, or with tags, fused parts or gaps limits assumed): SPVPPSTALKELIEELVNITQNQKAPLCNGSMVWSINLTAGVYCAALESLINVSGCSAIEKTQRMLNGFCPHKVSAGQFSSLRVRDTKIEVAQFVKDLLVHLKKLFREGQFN

native human IL-13 (human), sequence (P35225 other isoform, or with tags, fused parts or gaps limits assumed): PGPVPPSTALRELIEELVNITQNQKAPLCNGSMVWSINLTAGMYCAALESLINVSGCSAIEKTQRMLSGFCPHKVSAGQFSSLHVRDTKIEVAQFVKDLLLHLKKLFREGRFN

B1: antibody with the murine heavy chain of MJ2-7 and a humanized light chain (antibody, part only; not given: humanized light chain, V domains shown, part only)
VH: EVQLQQSGAELVKPGASVKLSCTGSGFNIKDTYIHWVKQRPEQGLEWIGRIDPANDNIKYDPKFQGKATITADTSSNTAYLQLNSLTSEDTAVYYCARSEENWYDFFDYWGQGTTLTVSS
In test [1], B1 showed an STAT6 phosphorylation, IC50 of 0.554 nM. In test [2], the CD23 expression, IC50 worked out at 0.308 nM.
